Measurements as given in paper PMC4990422, “Coupling between the DEAD-box RNA helicases Ded1p and eIF4A” (eLife, 2016).

Assays:
Details in all cases: both partners purified
Ded1p-eIF4G complex [1] = biological target: T1, Ded1p-eIF4G complex (S. cerevisiae, UniProt P06634 1-604; P39935 1-952; P07260 1-213); assay: global fit of RNA unwinding time courses to a thermodynamic model; K1/2 of a binding step calculated with the model of Figure 4A; RNA bound to the binder before the step, ATP bound to Ded1p
T1 construct: Ded1p, S. cerevisiae, wild type, as Wm1; eIF4G1, S. cerevisiae, as in Wm3; eIF4E, S. cerevisiae, as in Wm3; present in the preparations of eIF4G; State of the thermodynamic model; also called DG; DTG; source: formed from the purified recombinant proteins; copies: + +

Ded1p-eIF4G complex [2] = biological target: T1, Ded1p-eIF4G complex; assay: global fit of RNA unwinding time courses to a thermodynamic model; K1/2 of a binding step calculated with the model of Figure 4A; RNA bound to the binder before the step, ATP bound to Ded1p and to eIF4A
eIF4G [3] = biological target: T2, eIF4G (S. cerevisiae, UniProt P39935 1-952; P07260 1-213); assay: global fit of RNA unwinding time courses to a thermodynamic model; K1/2 of a binding step calculated with the model of Figure 4A; RNA bound to the target before the step, no ATP
T2 construct: eIF4G1, scaffolding protein of translation initiation, S. cerevisiae; present in the preparations of eIF4G; the model treats G as one unit; also called eIF4G1; S•Tag-eIF4G; source: recombinant, expression and purification previously described (Hilliker et al., 2011)
T2 sequence (looked up) 1: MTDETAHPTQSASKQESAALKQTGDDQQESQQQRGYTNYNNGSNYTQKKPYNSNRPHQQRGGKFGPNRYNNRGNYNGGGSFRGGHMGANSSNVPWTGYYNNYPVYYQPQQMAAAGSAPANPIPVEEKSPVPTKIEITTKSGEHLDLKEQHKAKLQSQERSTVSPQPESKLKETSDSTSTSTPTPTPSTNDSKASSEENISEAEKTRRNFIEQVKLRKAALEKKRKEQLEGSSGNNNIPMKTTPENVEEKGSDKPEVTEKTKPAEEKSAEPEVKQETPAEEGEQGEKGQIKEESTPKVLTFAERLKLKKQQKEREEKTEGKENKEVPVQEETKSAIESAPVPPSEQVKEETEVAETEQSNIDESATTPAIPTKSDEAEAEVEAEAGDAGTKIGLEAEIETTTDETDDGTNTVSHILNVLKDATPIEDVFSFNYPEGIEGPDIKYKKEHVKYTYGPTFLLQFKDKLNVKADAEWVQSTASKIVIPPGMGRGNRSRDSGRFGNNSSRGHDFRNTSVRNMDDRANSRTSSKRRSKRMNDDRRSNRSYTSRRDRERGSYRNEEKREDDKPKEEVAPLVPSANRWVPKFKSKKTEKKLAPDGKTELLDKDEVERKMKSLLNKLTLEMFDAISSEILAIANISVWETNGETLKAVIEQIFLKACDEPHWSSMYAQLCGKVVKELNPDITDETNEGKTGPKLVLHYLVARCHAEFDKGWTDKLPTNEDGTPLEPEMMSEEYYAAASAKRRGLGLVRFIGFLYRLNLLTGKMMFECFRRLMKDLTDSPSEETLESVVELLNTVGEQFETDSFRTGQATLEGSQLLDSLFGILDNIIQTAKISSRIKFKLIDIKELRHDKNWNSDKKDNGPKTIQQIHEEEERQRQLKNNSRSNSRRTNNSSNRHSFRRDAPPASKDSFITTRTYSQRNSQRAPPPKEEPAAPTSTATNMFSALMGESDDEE
T2 sequence (looked up) 2: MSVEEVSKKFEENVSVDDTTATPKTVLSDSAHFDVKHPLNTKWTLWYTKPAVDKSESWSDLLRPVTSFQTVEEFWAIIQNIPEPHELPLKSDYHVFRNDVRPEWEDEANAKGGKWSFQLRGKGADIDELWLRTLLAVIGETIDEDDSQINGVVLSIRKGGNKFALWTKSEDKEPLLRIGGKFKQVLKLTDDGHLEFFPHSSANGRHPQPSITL

Ded1p-eIF4G complex [4] = biological target: T1, Ded1p-eIF4G complex; assay: as above
eIF4G [5] = biological target: T2, eIF4G; assay: global fit of RNA unwinding time courses to a thermodynamic model; K1/2 of a binding step calculated with the model of Figure 4A; step without RNA, ATP bound to eIF4A
Ded1p-eIF4G complex [6] = biological target: T1, Ded1p-eIF4G complex; assay: as above

T1 sequence (P06634 whole entry, one chain of several): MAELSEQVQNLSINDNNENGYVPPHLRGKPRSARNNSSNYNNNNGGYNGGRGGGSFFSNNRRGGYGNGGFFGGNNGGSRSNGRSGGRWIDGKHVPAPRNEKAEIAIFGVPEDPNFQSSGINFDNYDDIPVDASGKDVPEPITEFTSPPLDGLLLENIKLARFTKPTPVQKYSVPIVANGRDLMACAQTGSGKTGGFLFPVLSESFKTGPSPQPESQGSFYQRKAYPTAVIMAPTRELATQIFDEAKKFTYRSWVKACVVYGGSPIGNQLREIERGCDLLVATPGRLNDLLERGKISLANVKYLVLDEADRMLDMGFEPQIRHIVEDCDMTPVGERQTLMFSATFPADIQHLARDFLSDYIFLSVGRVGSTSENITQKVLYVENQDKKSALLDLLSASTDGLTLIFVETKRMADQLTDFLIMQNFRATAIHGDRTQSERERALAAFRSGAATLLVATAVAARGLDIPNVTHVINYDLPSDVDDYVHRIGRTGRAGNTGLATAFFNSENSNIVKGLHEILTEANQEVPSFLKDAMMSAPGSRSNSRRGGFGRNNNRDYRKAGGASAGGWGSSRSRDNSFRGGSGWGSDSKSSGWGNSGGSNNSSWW

- Kd (Ded1p-eIF4G complex [1]): 0.006 nM
- Kd (Ded1p-eIF4G complex [2]): 0.013 nM
- Kd (eIF4G [3]): 1060 nM
- Kd (Ded1p-eIF4G complex [4]): 7 nM
- Kd (eIF4G [5]): 1000 nM
- Kd (Ded1p-eIF4G complex [6]): 0.28 nM
B1: eIF4A (enzyme, S. cerevisiae, UniProt P10081 1-395, looked up)
chain: MSEGITDIEESQIQTNYDKVVYKFDDMELDENLLRGVFGYGFEEPSAIQQRAIMPIIEGHDVLAQAQSGTGKTGTFSIAALQRIDTSVKAPQALMLAPTRELALQIQKVVMALAFHMDIKVHACIGGTSFVEDAEGLRDAQIVVGTPGRVFDNIQRRRFRTDKIKMFILDEADEMLSSGFKEQIYQIFTLLPPTTQVVLLSATMPNDVLEVTTKFMRNPVRILVKKDELTLEGIKQFYVNVEEEEYKYECLTDLYDSISVTQAVIFCNTRRKVEELTTKLRNDKFTVSAIYSDLPQQERDTIMKEFRSGSSRILISTDLLARGIDVQQVSLVINYDLPANKENYIHRIGRGGRFGRKGVAINFVTNEDVGAMRELEKFYSTQIEELPSDIATLLN
notes: eIF4A, DEAD-box RNA helicase, S. cerevisiae, wild type; also called wild-type yeast eIF4A; source: recombinant, purified as described (Hilliker et al., 2011)
